From the supplement of paper PMC11246515 come the findings set out here.

± gives the standard deviation of the averaged measurements.

The data set is described as follows: total protein half-life in vivo (active degradation + dilution); higher = more stable protein.
Where [1] appears, read: E. coli NCM3722 delta-clpP, growth: N-lim chemostat, doubling time 6 h.
Setting [2] is: E. coli NCM3722 delta-hslV, growth: N-lim chemostat, doubling time 6 h.
The mark [3] stands for this setting: E. coli NCM3722 delta-lon, growth: N-lim chemostat, doubling time 6 h.
[4] abbreviates: wild type E. coli NCM3722, growth: C-lim chemostat, doubling time 3 h.
The mark [5] stands for this setting: wild type E. coli NCM3722, growth: C-lim chemostat, doubling time 6 h.
[6] abbreviates: wild type E. coli NCM3722, growth: C-lim chemostat, doubling time 12 h.
The mark [7] stands for this setting: E. coli NCM3722 delta-clpP delta-lon delta-hslV, growth: N-lim chemostat, doubling time 6 h.
The mark [8] stands for this setting: E. coli NCM3722 delta-smpB, growth: N-lim chemostat, doubling time 6 h.
[9] abbreviates: wild type E. coli NCM3722, growth: N-lim chemostat, doubling time 6 h.
The mark [10] stands for this setting: wild type E. coli NCM3722, growth: N-lim chemostat, doubling time 12 h.
The mark [11] stands for this setting: wild type E. coli NCM3722, growth: P-lim chemostat, doubling time 6 h.
Setting [12] is: wild type E. coli NCM3722, growth: P-lim chemostat, doubling time 12 h.

For the sequence “MKNTKLLLAIATSAALLTGCQNTHGIDTNMAISSGLNAYKAATLSDADAKAIANQGCAEMDSGNQVASKSSKYGKRLAKIAKALGNNINGTPVNYKVYMTSDVNAWAMANGCVRVYSGLMDMMNDNEIEGVLGHELGHVALGHSLAEMKASYAIVAARDAISATSGVASQLSRSQLGDIAEGAINAKYSRDKESEADDFSFDLLKKRGISTQGLVGSFETLASLDGGRTQSMFDSHPPSTERAQHIRDRIASGK”, the “total protein half-life in vivo” value reads like this: under setting [1], 3.87 h; under setting [2], 4.19 h; under setting [3], 5.88 h.
Take “MIKFLSALILLLVTTAAQAERIRDLTSVQGVRQNSLIGYGLVVGLDGTGDQTTQTPFTTQTLNNMLSQLGITVPTGTNMQLKNVAAVMVTASLPPFGRQGQTIDVVVSSMGNAKSLRGGTLLMTPLKGVDSQVYALAQGNILVGGAGASAGGSSVQVNQLNGGRITNGAVIERELPSQFGVGNTLNLQLNDEDFSMAQQIADTINRVRGYGSATALDARTIQVRVPSGNSSQVRFLADIQNMQVNVTPQDAKVVINSRTGSVVMNREVTLDSCAVAQGNLSVTVNRQANVSQPDTPFGGGQTVVTPQTQIDLRQSGGSLQSVRSSASLNNVVRALNALGATPMDLMSILQSMQSAGCLRAKLEII [P0A6S3]”: the “total protein half-life in vivo” value by setting is: under setting [4], 2.203 ± 0.022 h; under setting [5], 4.68 h; under setting [6], 8.58 ± 1.3 h.
As to “MGDSILSQAEIDALLNGDSEVKDEPTASVSGESDIRPYDPNTQRRVVRERLQALEIINERFARHFRMGLFNLLRRSPDITVGAIRIQPYHEFARNLPVPTNLNLIHLKPLRGTGLVVFSPSLVFIAVDNLFGGDGRFPTKVEGREFTHTEQRVINRMLKLALEGYSDAWKAINPLEVEYVRSEMQVKFTNITTSPNDIVVNTPFHVEIGNLTGEFNICLPFSMIEPLRELLVNPPLENSRNEDQNWRDNLVRQVQHSQLELVANFADISLRLSQILKLNPGDVLPIEKPDRIIAHVDGVPVLTSQYGTLNGQYALRIEHLINPILNSLNEEQPK”, the “total protein half-life in vivo” value under setting [7] worked out at 4.44 ± 0.11 h, the “total protein half-life in vivo” value under setting [4] was 2.17 ± 0.39 h, the “total protein half-life in vivo” value under setting [5] came out at 3.96 ± 0.9 h and the “total protein half-life in vivo” value under setting [6] is 6.79 ± 0.98 h.
Regarding “MTEIVADKTVEVVKNAIETADGALDLYNKYLDQVIPWQTFDETIKELSRFKQEYSQAASVLVGDIKTLLMDSQDKYFEATQTVYEWCGVATQLLAAYILLFDEYNEKKASAQKDILIKVLDDGITKLNEAQKSLLVSSQSFNNASGKLLALDSQLTNDFSEKSSYFQSQVDKIRKEAYAGAAAGVVAGPFGLIISYSIAAGVVEGKLIPELKNKLKSVQNFFTTLSNTVKQANKDIDAAKLKLTTEIAAIGEIKTETETTRFYVDYDDLMLSLLKEAAKKMINTCNEYQKRHGKKTLFEVPEV”, the “total protein half-life in vivo” value is, setting by setting: under setting [7], 4.51 ± 0.82 h; under setting [1], 4.37 ± 0.14 h; under setting [2], 3.54 ± 0.068 h; under setting [3], 3.77 ± 0.13 h; under setting [8], 2.84 ± 0.25 h; under setting [4], 3.15 ± 0.65 h. For the same sequence, the “total protein half-life in vivo” value under setting [5] is 4.71 ± 0.94 h; the “total protein half-life in vivo” value under setting [6] was found to be 6.71 ± 1.1 h; the “total protein half-life in vivo” value under setting [9] was 3.2 ± 0.039 h; the “total protein half-life in vivo” value under setting [10] turned out to be 5.29 ± 0.62 h; the “total protein half-life in vivo” value under setting [11] was 4.11 ± 0.63 h; the “total protein half-life in vivo” value under setting [12] was 7.49 ± 0.36 h.
In the case of “MRRELAIEFSRVTESAALAGYKWLGRGDKNTADGAAVNAMRIMLNQVNIDGTIVIGEGEIDEAPMLYIGEKVGTGRGDAVDIAVDPIEGTRMTAMGQANALAVLAVGDKGCFLNAPDMYMEKLIVGPGAKGTIDLNLPLADNLRNVAAALGKPLSELTVTILAKPRHDAVIAEMQQLGVRVFAIPDGDVAASILTCMPDSEVDVLYGIGGAPEGVVSAAVIRALDGDMNGRLLARHDVKGDNEENRRIGEQELARCKAMGIEAGKVLRLGDMARSDNVIFSATGITKGDLLEGISRKGNIATTETLLIRGKSRTIRRIQSIHYLDRKDPEMQVHIL [P0A9C9]”, the “total protein half-life in vivo” value is, setting by setting: under setting [1], 4.69 ± 0.43 h; under setting [2], 4.84 ± 0.68 h; under setting [3], 4.309 ± 0.04 h; under setting [8], 4.27 ± 0.27 h; under setting [4], 3.593 ± 0.019 h; under setting [5], 5.39 ± 0.19 h. Also, the “total protein half-life in vivo” value under setting [6] was determined as 9.84 ± 0.62 h; the “total protein half-life in vivo” value under setting [9] is 4.51 ± 0.52 h; the “total protein half-life in vivo” value under setting [10] came to 7.05 ± 0.25 h; the “total protein half-life in vivo” value under setting [11] came to 5.75 ± 0.21 h; the “total protein half-life in vivo” value under setting [12] was 12 ± 1.2 h.
In the case of “MFNNILVVCVGNICRSPTAERLLQRYHPELKVESAGLGALVGKGADPTAISVAAEHQLSLEGHCARQISRRLCRNYDLILTMEKRHIERLCEMAPEMRGKVMLFGHWDNECEIPDPYRKSRETFAAVYTLLERSARQWAQALNAEQV [P0AAB2]”, the “total protein half-life in vivo” value reads like this: under setting [7], 5.46 h; under setting [3], 1.13 h.
Take “MPKLVTWMNNQRVGELTKLANGAHTFKYAPEWLASRYARPLSLSLPLQRGNITSDAVFNFFDNLLPDSPIVRDRIVKRYHAKSRQPFDLLSEIGRDSVGAVTLIPEDETVTHPIMAWEKLTEARLEEVLTAYKADIPLGMIREENDFRISVAGAQEKTALLRIGNDWCIPKGITPTTHIIKLPIGEIRQPNATLDLSQSVDNEYYCLLLAKELGLNVPDAEIIKAGNVRALAVERFDRRWNAERTVLLRLPQEDMCQTFGLPSSVKYESDGGPGIARIMAFLMGSSEALKDRYDFMKFQVFQWLIGATDGHAKNFSVFIQAGGSYRLTPFYDIISAFPVLGGTGIHISDLKLAMGLNASKGKKTAIDKIYPRHFLATAKVLRFPEVQMHEILSDFARMIPAALDNVKTSLPTDFPENVVTAVESNVLRLHGRLSREYGSK”: the “total protein half-life in vivo” value by setting is: under setting [7], 5.44 ± 0.06 h; under setting [2], 5.63 ± 0.078 h; under setting [3], 5.73 ± 0.54 h; under setting [8], 5.22 ± 0.39 h; under setting [4], 3 ± 0.061 h; under setting [5], 5.65 ± 0.24 h. In addition, the “total protein half-life in vivo” value under setting [6] is 10.8 ± 0.14 h, the “total protein half-life in vivo” value under setting [9] was 5.21 ± 0.73 h, the “total protein half-life in vivo” value under setting [10] came to 9.66 ± 1.8 h and the “total protein half-life in vivo” value under setting [11] came out at 6.37 ± 0.53 h.
Consider “MAYTTFSQTKNDQLKEPMFFGQPVNVARYDQQKYDIFEKLIEKQLSFFWRPEEVDVSRDRIDYQALPEHEKHIFISNLKYQTLLDSIQGRSPNVALLPLISIPELETWVETWAFSETIHSRSYTHIIRNIVNDPSVVFDDIVTNEQIQKRAEGISSYYDELIEMTSYWHLLGEGTHTVNGKTVTVSLRELKKKLYLCLMSVNALEAIRFYVSFACSFAFAERELMEGNAKIIRLIARDEALHLTGTQHMLNLLRSGADDPEMAEIAEECKQECYDLFVQAAQQEKDWADYLFRDGSMIGLNKDILCQYVEYITNIRMQAVGLDLPFQTRSNPIPWINTWLVSDNVQVAPQEVEVSSYLVGQIDSEVDTDDLSNFQL”, for which the “total protein half-life in vivo” value under setting [7] came out at 4.55 ± 0.57 h; the “total protein half-life in vivo” value under setting [1] was found to be 4.92 ± 1.1 h; the “total protein half-life in vivo” value under setting [2] came to 3.45 ± 0.054 h; the “total protein half-life in vivo” value under setting [3] was 4.25 ± 0.52 h; the “total protein half-life in vivo” value under setting [8] turned out to be 3.62 ± 0.26 h; the “total protein half-life in vivo” value under setting [4] came out at 3.04 ± 0.28 h. The “total protein half-life in vivo” value was 5.7 ± 0.76 h under setting [5]; 9.25 ± 0.099 h under setting [6]; 3.415 ± 0.022 h under setting [9]; 5.12 ± 0.56 h under setting [10]; 5.24 ± 0.12 h under setting [11]; 9.5 ± 0.26 h under setting [12].
For “MNRTILVPIDISDSELTQRVISHVEEEAKIDDAEVHFLTVIPSLPYYASLGLAYSAELPAMDDLKAEAKSQLEEIIKKFKLPTDRVHVHVEEGSPKDRILELAKKIPAHMIIIASHRPDITTYLLGSNAAAVVRHAECSVLVVR”, the “total protein half-life in vivo” value under setting [7] was 5.69 ± 1.3 h; the “total protein half-life in vivo” value under setting [1] came to 4.76 ± 0.38 h; the “total protein half-life in vivo” value under setting [2] was found to be 6.17 ± 2.1 h; the “total protein half-life in vivo” value under setting [3] is 3.98 ± 0.51 h; the “total protein half-life in vivo” value under setting [8] is 4.47 ± 0.24 h; the “total protein half-life in vivo” value under setting [4] worked out at 3.61 ± 0.042 h. For the same sequence, the “total protein half-life in vivo” value under setting [5] was 5.75 ± 0.62 h; the “total protein half-life in vivo” value under setting [6] was 10.3 ± 1.1 h; the “total protein half-life in vivo” value under setting [9] is 4.7255 ± 0.0038 h; the “total protein half-life in vivo” value under setting [10] amounted to 7.83 ± 0.48 h; the “total protein half-life in vivo” value under setting [11] stood at 5.521 ± 0.026 h; the “total protein half-life in vivo” value under setting [12] turned out to be 9.62 ± 1 h.
“MRTLLAILLFPLLVQAAGEGMWQASSVGITLNHRGESMSSAPLSTRQPASGLMTLVAWRYQLIGPTPSGLRVRLCSQSRCVELEGQSGTTVAFSGIAAAEPLRFIWEVPGGGRLIPPLKVQRNEVIVNYR”: the “total protein half-life in vivo” value runs as follows: under setting [5], 4.74 h; under setting [6], 8.78 ± 2.5 h.
